Like-named read-outs stand apart in the source and are kept apart here.

The source of these data is article PMC4731781, “The β2 clamp in the Mycobacterium tuberculosis DNA polymerase III αβ2ε replicase promotes polymerization and reduces exonuclease activity” (Scientific Reports, 2016).

For assay [1], the target named is beta2 clamp (Escherichia coli) (UniProt P0A988). To be noted: cited from earlier work.
The target is the same in assay [2]. The conditions noted are these: cited from earlier work. This is another data set of the same source.
The target in assay [3] is T1, Mtb DNA Pol III α subunit (DnaE1), purified recombinant (Mycobacterium tuberculosis, UniProt P9WNT7 1-1184).
T1 construct: also called Mtb α; MtbDnaE1; source: E. coli, purified
T1 sequence: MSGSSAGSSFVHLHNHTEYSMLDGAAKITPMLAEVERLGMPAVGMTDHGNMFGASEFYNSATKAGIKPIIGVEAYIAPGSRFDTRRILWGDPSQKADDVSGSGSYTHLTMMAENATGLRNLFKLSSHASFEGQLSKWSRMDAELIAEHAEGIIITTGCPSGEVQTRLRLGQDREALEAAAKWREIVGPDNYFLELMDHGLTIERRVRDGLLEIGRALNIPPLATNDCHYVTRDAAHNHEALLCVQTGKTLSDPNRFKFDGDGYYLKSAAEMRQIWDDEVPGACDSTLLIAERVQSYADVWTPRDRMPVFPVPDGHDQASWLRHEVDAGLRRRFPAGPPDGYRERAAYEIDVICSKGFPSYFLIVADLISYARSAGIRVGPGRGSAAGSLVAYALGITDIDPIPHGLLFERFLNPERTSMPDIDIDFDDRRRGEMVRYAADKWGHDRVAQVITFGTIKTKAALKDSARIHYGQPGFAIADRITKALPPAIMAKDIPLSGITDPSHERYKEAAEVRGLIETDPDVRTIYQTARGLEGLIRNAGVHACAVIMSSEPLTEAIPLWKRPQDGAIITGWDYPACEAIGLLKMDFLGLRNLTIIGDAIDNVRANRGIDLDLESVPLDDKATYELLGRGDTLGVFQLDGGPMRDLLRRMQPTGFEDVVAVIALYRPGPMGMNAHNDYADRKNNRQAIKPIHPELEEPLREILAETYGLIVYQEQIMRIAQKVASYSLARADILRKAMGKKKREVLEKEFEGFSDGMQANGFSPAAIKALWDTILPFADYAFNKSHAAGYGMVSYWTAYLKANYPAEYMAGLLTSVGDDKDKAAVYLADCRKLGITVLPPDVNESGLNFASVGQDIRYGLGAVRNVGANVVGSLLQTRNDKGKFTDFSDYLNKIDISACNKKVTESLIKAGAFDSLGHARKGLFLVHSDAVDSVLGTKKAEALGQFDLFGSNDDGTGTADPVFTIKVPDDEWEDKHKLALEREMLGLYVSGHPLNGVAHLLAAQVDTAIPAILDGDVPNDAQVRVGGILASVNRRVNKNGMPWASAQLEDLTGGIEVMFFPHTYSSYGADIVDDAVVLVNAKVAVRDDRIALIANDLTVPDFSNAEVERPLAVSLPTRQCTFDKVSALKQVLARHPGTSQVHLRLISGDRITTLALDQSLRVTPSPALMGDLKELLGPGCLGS
Nature of the assay: SPR; BIAcore3000, β subunit amine-coupled to the chip (about 1800 RU); α injected at 0.01, 0.1 and 1 μM in 50 mM HEPES pH 7.5, 100 mM NaCl, 0.005% Tween20, 30 μl/min; global fit to a 1:1 Langmuir model. The conditions noted are these: both partners purified. A general note: In SPR one partner is held on a chip, and binding of the other changes the refractive index at the surface.

For assay [4], the target named is T2, Mtb DNA Pol III δ subunit (HolA) (Mycobacterium tuberculosis, UniProt P71730 1-322).
T2 sequence: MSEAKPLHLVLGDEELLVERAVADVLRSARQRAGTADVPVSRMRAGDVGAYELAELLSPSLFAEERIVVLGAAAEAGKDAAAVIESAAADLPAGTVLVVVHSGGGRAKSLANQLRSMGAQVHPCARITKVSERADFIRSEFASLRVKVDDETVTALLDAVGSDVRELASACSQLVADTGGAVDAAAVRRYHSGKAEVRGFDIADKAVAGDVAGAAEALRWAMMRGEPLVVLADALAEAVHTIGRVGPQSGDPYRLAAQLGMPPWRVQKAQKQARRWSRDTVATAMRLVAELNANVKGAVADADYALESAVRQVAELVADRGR
Description: co-purification, densitometry of an SDS-PAGE gel. To be noted: partners not purified.

The target in assay [5] is T3, Mtb DNA Pol III δ’ subunit (HolB) (Mycobacterium tuberculosis, UniProt Q7D554 1-404).
T3 sequence: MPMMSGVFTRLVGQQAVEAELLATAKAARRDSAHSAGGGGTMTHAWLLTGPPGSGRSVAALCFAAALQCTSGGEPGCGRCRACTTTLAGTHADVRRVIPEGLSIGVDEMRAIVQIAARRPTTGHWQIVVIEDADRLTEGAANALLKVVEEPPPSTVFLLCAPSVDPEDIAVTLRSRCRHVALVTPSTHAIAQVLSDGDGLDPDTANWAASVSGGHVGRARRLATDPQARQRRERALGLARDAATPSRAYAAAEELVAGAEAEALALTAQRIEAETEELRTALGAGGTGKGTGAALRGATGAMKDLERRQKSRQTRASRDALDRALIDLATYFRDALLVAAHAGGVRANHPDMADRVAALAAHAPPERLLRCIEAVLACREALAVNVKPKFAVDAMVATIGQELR
Description: co-purification, densitometry of an SDS-PAGE gel. The conditions noted are these: partners not purified.

beta2 clamp (Escherichia coli), sequence (P0A988 whole entry): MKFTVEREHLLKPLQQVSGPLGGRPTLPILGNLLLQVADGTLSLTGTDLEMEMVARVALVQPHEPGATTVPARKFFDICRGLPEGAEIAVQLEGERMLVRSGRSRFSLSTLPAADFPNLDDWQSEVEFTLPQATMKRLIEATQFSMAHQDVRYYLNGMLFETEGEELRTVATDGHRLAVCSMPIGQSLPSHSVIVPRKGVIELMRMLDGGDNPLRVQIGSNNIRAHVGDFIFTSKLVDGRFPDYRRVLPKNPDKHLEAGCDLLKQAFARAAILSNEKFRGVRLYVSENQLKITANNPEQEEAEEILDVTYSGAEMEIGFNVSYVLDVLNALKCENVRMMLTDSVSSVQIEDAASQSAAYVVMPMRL

With “DNA polymerase III epsilon (from UniProt P03007)”, the Kd – broadly, the free concentration of one partner at which half of the binding sites on the other are occupied at equilibrium, for simple one-to-one binding – in assay [1] is 200000 nM.
“DNA polymerase III alpha (from UniProt P10443)”: the Kd in assay [2] was 1200 nM.

B1: Mtb DNA Pol III β2 clamp (DnaN), purified recombinant (natural protein)
chain: MDAATTRVGLTDLTFRLLRESFADAVSWVAKNLPARPAVPVLSGVLLTGSDNGLTISGFDYEVSAEAQVGAEIVSPGSVLVSGRLLSDITRALPNKPVDVHVEGNRVALTCGNARFSLPTMPVEDYPTLPTLPEETGLLPAELFAEAISQVAIAAGRDDTLPMLTGIRVEILGETVVLAATDRFRLAVRELKWSASSPDIEAAVLVPAKTLAEAAKAGIGGSDVRLSLGTGPGVGKDGLLGISGNGKRSTTRLLDAEFPKFRQLLPTEHTAVATMDVAELIEAIKLVALVADRGAQVRMEFADGSVRLSAGADDVGRAEEDLVVDYAGEPLTIAFNPTYLTDGLSSLRSERVSFGFTTAGKPALLRPVSGDDRPVAGLNGNGPFPAVSTDYVYLLMPVRLPG
notes: DNA polymerase III β subunit (sliding clamp) DnaN of Mycobacterium tuberculosis; also called β subunit; β clamp
For B1, the Kd in assay [3] came to 10.9 nM.

B2: Mtb DNA Pol III τ subunit (DnaZX) (natural protein)
chain: MALYRKYRPASFAEVVGQEHVTAPLSVALDAGRINHAYLFSGPRGCGKTSSARILARSLNCAQGPTANPCGVCESCVSLAPNAPGSIDVVELDAASHGGVDDTRELRDRAFYAPVQSRYRVFIVDEAHMVTTAGFNALLKIVEEPPEHLIFIFATTEPEKVLPTIRSRTHHYPFRLLPPRTMRALLARICEQEGVVVDDAVYPLVIRAGGGSPRDTLSVLDQLLAGAADTHVTYTRALGLLGVTDVALIDDAVDALAACDAAALFGAIESVIDGGHDPRRFATDLLERFRDLIVLQSVPDAASRGVVDAPEDALDRMREQAARIGRATLTRYAEVVQAGLGEMRGATAPRLLLEVVCARLLLPSASDAESALLQRVERIETRLDMSIPAPQAVPRPSAAAAEPKHQPAREPRPVLAPTPASSEPTVAAVRSMWPTVRDKVRLRSRTTEVMLAGATVRALEDNTLVLTHESAPLARRLSEQRNADVLAEALKDALGVNWRVRCETGEPAAAASPVGGGANVATAKAVNPAPTANSTQRDEEEHMLAEAGRGDPSPRRDPEEVALELLQNELGARRIDNA
notes: Three copies in the clamp loader τ3δδ’ by densitometry
As to B2, the “stoichiometry N” value in assay [4] was 3 τ per δ; in assay [5] it was 3 τ per δ’.
